Experiments:
[1] = molecular target: i,i+7 binder Linker 8; experiment: fluorescence polarization; xStAx41 derivative
[2] = molecular target: i,i+4 non-binder Linker 2; experiment: fluorescence polarization; xStAx41 derivative
[3] = molecular target: i,i+7 binder Linker 9; experiment: fluorescence polarization; xStAx41 derivative
[4] = molecular target: i,i+4 binder Linker 6; experiment: fluorescence polarization; xStAx41 derivative
[5] = molecular target: i,i+7 non-binder Linker 2; experiment: fluorescence polarization; xStAx41 derivative
[6] = molecular target: i,i+7 non-binder Linker 9; experiment: fluorescence polarization; xStAx41 derivative
[7] = molecular target: i,i+7 binder Linker 7; experiment: fluorescence polarization; xStAx41 derivative
[8] = molecular target: i,i+7 binder Linker 1; experiment: fluorescence polarization; xStAx41 derivative
[9] = molecular target: i,i+7 non-binder Linker 8; experiment: fluorescence polarization; xStAx41 derivative
[10] = molecular target: i,i+7 binder Linker 3; experiment: fluorescence polarization; xStAx41 derivative
[11] = molecular target: i,i+4 binder Linker 3; experiment: fluorescence polarization; xStAx41 derivative
[12] = molecular target: i,i+4 non-binder Linker 5; experiment: fluorescence polarization; xStAx41 derivative
[13] = molecular target: i,i+4 non-binder Linker 7; experiment: fluorescence polarization; xStAx41 derivative
[14] = molecular target: i,i+7 binder Linker 2; experiment: fluorescence polarization; xStAx41 derivative
[15] = molecular target: i,i+4 non-binder Linker 9; experiment: fluorescence polarization; xStAx41 derivative
[16] = molecular target: i,i+4 non-binder Linker 4; experiment: fluorescence polarization; xStAx41 derivative
[17] = molecular target: i,i+4 binder Linker 1; experiment: fluorescence polarization; xStAx41 derivative
[18] = molecular target: i,i+4 non-binder Linker 8; experiment: fluorescence polarization; xStAx41 derivative
[19] = molecular target: i,i+4 binder Linker 9; experiment: fluorescence polarization; xStAx41 derivative
[20] = molecular target: i,i+4 non-binder Linker 6; experiment: fluorescence polarization; xStAx41 derivative
[21] = molecular target: i,i+7 non-binder Linker 1; experiment: fluorescence polarization; xStAx41 derivative
[22] = molecular target: i,i+4 binder Linker 8; experiment: fluorescence polarization; xStAx41 derivative
[23] = molecular target: i,i+7 non-binder Linker 5; experiment: fluorescence polarization; xStAx41 derivative
[24] = molecular target: i,i+4 binder Linker 7; experiment: fluorescence polarization; xStAx41 derivative
[25] = molecular target: i,i+4 non-binder Linker 1; experiment: fluorescence polarization; xStAx41 derivative
[26] = molecular target: i,i+7 binder Linker 4; experiment: fluorescence polarization; xStAx41 derivative
[27] = molecular target: i,i+7 non-binder Linker 4; experiment: fluorescence polarization; xStAx41 derivative
[28] = molecular target: i,i+7 non-binder Linker 7; experiment: fluorescence polarization; xStAx41 derivative
[29] = molecular target: i,i+4 non-binder Linker 3; experiment: fluorescence polarization; xStAx41 derivative
[30] = molecular target: i,i+4 binder Linker 2; experiment: fluorescence polarization; xStAx41 derivative
[31] = molecular target: i,i+7 non-binder Linker 6; experiment: fluorescence polarization; xStAx41 derivative
[32] = molecular target: i,i+7 binder Linker 6; experiment: fluorescence polarization; xStAx41 derivative
[33] = molecular target: i,i+4 binder Linker 5; experiment: fluorescence polarization; xStAx41 derivative
[34] = molecular target: i,i+7 binder Linker 5; experiment: fluorescence polarization; xStAx41 derivative
[35] = molecular target: i,i+4 binder Linker 4; experiment: fluorescence polarization; xStAx41 derivative
[36] = molecular target: i,i+7 non-binder Linker 3; experiment: fluorescence polarization; xStAx41 derivative
[37] = molecular target: Compound 2; experiment: SPR (Biacore)

B1: beta-catenin (other)
chain: ATQADLMELDMAMEPDRKAAVSHWQQQSYLDSGIHSGATTTAPSLSGKGNPEEEDVDTSQVLYEWEQGFSQSFTQEQVADIDGQYAMTRAQRVRAAMFPETLDEGMQIPSTQFDAAHPTNVQRLAEPSQMLKHAVVNLINYQDDAELATRAIPELTKLLNDEDQVVVNKAAVMVHQLSKKEASRHAIMRSPQMVSAIVRTMQNTNDVETARCTAGTLHNLSHHREGLLAIFKSGGIPALVKMLGSPVDSVLFYAITTLHNLLLHQEGAKMAVRLAGGLQKMVALLNKTNVKFLAITTDCLQILAYGNQESKLIILASGGPQALVNIMRTYTYEKLLWTTSRVLKVLSVCSSNKPAIVEAGGMQALGLHLTDPSQRLVQNCLWTLRNLSDAATKQEGMEGLLGTLVQLLGSDDINVVTCAAGILSNLTCNNYKNKMMVCQVGGIEALVRTVLRAGDREDITEPAICALRHLTSRHQEAEMAQNAVRLHYGLPVVVKLLHPPSHWPLIKATVGLIRNLALCPANHAPLREQGAIPRLVQLLVRAHQDTQRRTSMGGTQQQFVEGVRMEEIVEGCTGALHILARDVHNRIVIRGLNTIPLFVQLLYSPIENIQRVAAGVLCELAQDKEAAEAIEAEGATAPLTELLHSRNEGVATYAAAVLFRMSEDKPQDYKKRLSVELTSSLFRTEPMAWNETADLGLDIGAQGEPLGYRQDDPSYRSFHSGGYGQDALGMDPMMEHEMGGHHPGADYPVDGLPDLGHAQDLMDGLPPGDSNQLAWFDTDL
[1]
  Kd: 16.3 µM
[2]
  Kd: > 50 µM
[3]
  Kd: 10.5 µM
[4]
  Kd: 5.6 µM
[5]
  Kd: > 50 µM
[6]
  Kd: > 50 µM
[7]
  Kd: 0.6 µM
[8]
  Kd: 2.9 µM
[9]
  Kd: > 50 µM
[10]
  Kd: 25.4 µM
[11]
  Kd: 7.1 µM
[12]
  Kd: > 50 µM
[13]
  Kd: > 50 µM
[14]
  Kd: > 50 µM
[15]
  Kd: > 50 µM
[16]
  Kd: > 50 µM
[17]
  Kd: > 50 µM
[18]
  Kd: > 50 µM
[19]
  Kd: 2.4 µM
[20]
  Kd: > 50 µM
[21]
  Kd: > 50 µM
[22]
  Kd: 28.7 µM
[23]
  Kd: > 50 µM
[24]
  Kd: 7.8 µM
[25]
  Kd: > 50 µM
[26]
  Kd: 8.7 µM
[27]
  Kd: > 50 µM
[28]
  Kd: > 50 µM
[29]
  Kd: > 50 µM
[30]
  Kd: 3.1 µM
[31]
  Kd: > 50 µM
[32]
  Kd: 5.3 µM
[33]
  Kd: 8.6 µM
[34]
  Kd: 14.6 µM
[35]
  Kd: 10.1 µM
[36]
  Kd: > 50 µM

B2: beta-Catenin (other)
chain: HAVVNLINYQDDAELATRAIPELTKLLNDEDQVVVNKAAVMVHQLSKKEASRHAIMRSPQMVSAIVRTMQNTNDVETARCTAGTLHNLSHHREGLLAIFKSGGIPALVKMLGSPVDSVLFYAITTLHNLLLHQEGAKMAVRLAGGLQKMVALLNKTNVKFLAITTDCLQILAYGNQESKLIILASGGPQALVNIMRTYTYEKLLWTTSRVLKVLSVCSSNKPAIVEAGGMQALGLHLTDPSQRLVQNCLWTLRNLSDAATKQEGMEGLLGTLVQLLGSDDINVVTCAAGILSNLTCNNYKNKMMVCQVGGIEALVRTVLRAGDREDITEPAICALRHLTSRHQEAEMAQNAVRLHYGLPVVVKLLHPPSHWPLIKATVGLIRNLALCPANHAPLREQGAIPRLVQLLVRAHQDTQRRTSMGGTQQQFVEGVRMEEIVEGCTGALHILARDVHNRIVIRGLNTIPLFVQLLYSPIENIQRVAAGVLCELAQDKEAAEAIEAEGATAPLTELLHSRNEGVATYAAAVLFRMSED
[37]
  Kd: 0.45 µM

Reference: US12398178 (dated 2025)
